Measurements taken from IntAct's records for PubMed 23650535.

B1: Receptor-type tyrosine-protein phosphatase eta (Homo sapiens), Q12913 (parent)
chain: MKPAAREARLPPRSPGLRWALPLLLLLLRLGQILCAGGTPSPIPDPSVATVATGENGITQISSTAESFHKQNGTGTPQVETNTSEDGESSGANDSLRTPEQGSNGTDGASQKTPSSTGPSPVFDIKAVSISPTNVILTWKSNDTAASEYKYVVKHKMENEKTITVVHQPWCNITGLRPATSYVFSITPGIGNETWGDPRVIKVITEPIPVSDLRVALTGVRKAALSWSNGNGTASCRVLLESIGSHEELTQDSRLQVNISGLKPGVQYNINPYLLQSNKTKGDPLGTEGGLDASNTERSRAGSPTAPVHDESLVGPVDPSSGQQSRDTEVLLVGLEPGTRYNATVYSQAANGTEGQPQAIEFRTNAIQVFDVTAVNISATSLTLIWKVSDNESSSNYTYKIHVAGETDSSNLNVSEPRAVIPGLRSSTFYNITVCPVLGDIEGTPGFLQVHTPPVPVSDFRVTVVSTTEIGLAWSSHDAESFQMHITQEGAGNSRVEITTNQSIIIGGLFPGTKYCFEIVPKGPNGTEGASRTVCNRTVPSAVFDIHVVYVTTTEMWLDWKSPDGASEYVYHLVIESKHGSNHTSTYDKAITLQGLIPGTLYNITISPEVDHVWGDPNSTAQYTRPSNVSNIDVSTNTTAATLSWQNFDDASPTYSYCLLIEKAGNSSNATQVVTDIGITDATVTELIPGSSYTVEIFAQVGDGIKSLEPGRKSFCTDPASMASFDCEVVPKEPALVLKWTCPPGANAGFELEVSSGAWNNATHLESCSSENGTEYRTEVTYLNFSTSYNISITTVSCGKMAAPTRNTCTTGITDPPPPDGSPNITSVSHNSVKVKFSGFEASHGPIKAYAVILTTGEAGHPSADVLKYTYEDFKKGASDTYVTYLIRTEEKGRSQSLSEVLKYEIDVGNESTTLGYYNGKLEPLGSYRACVAGFTNITFHPQNKGLIDGAESYVSFSRYSDAVSLPQDPGVICGAVFGCIFGALVIVTVGGFIFWRKKRKDAKNNEVSFSQIKPKKSKLIRVENFEAYFKKQQADSNCGFAEEYEDLKLVGISQPKYAAELAENRGKNRYNNVLPYDISRVKLSVQTHSTDDYINANYMPGYHSKKDFIATQGPLPNTLKDFWRMVWEKNVYAIIMLTKCVEQGRTKCEEYWPSKQAQDYGDITVAMTSEIVLPEWTIRDFTVKNIQTSESHPLRQFHFTSWPDHGVPDTTDLLINFRYLVRDYMKQSPPESPILVHCSAGVGRTGTFIAIDRLIYQIENENTVDVYGIVYDLRMHRPLMVQTEDQYVFLNQCVLDIVRSQKDSKVDLIYQNTTAMTIYENLAPVTTFGKTNGYIA

Variants of: B1
Conditions: with flt3_human FLT3, P36888
flt3_human FLT3, P36888, sequence (P36888 whole entry): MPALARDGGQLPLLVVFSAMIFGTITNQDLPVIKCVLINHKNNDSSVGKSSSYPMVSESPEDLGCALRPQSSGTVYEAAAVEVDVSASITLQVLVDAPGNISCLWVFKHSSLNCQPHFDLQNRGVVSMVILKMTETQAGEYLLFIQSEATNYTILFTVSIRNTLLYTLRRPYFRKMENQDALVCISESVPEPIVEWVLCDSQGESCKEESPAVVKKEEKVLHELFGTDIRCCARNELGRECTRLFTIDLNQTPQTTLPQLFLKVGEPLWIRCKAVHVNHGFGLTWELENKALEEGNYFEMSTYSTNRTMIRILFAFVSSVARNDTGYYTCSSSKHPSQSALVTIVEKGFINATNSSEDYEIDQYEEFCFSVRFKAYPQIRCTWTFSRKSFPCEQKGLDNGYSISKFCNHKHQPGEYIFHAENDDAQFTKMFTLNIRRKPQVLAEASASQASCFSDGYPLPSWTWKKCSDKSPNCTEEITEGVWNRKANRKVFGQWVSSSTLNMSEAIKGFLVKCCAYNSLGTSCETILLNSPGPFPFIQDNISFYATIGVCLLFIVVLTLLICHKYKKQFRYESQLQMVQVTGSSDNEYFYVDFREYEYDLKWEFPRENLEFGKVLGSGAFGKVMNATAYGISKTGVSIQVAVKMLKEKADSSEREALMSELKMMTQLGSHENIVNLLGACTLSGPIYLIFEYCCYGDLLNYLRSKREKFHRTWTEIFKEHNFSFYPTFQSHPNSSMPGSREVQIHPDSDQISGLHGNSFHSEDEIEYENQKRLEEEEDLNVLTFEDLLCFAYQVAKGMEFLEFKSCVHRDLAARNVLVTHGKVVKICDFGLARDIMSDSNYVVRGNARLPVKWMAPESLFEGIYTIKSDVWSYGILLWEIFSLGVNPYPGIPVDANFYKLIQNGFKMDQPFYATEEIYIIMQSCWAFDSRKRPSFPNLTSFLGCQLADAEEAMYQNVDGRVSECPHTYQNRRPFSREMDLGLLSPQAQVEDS

Variant	effect of a mutation on the interaction
C1239S	increasing interaction strength
